Assay results reported in patent publication US20260167699A1 (Chugai, published 2026).
Residue numbers refer to the chain shown, from its start.

T1: FcγRIIa(R) extracellular domain, C-terminal His tag (human, UniProt P12318 34-217)
T1 construct: extracellular domain; also called 2aR
T1 sequence: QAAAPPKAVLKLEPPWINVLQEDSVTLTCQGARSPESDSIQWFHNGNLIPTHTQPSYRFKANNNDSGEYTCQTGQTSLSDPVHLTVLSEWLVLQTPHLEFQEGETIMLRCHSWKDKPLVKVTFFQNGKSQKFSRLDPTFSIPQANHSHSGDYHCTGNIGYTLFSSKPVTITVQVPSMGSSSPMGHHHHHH

T2: FcγRIIa(H) extracellular domain, C-terminal His tag (human, UniProt P12318 34-217)
T2 construct: extracellular domain; also called 2aH
T2 sequence: T1 sequence with R134H

T3: FcγRIIb extracellular domain, C-terminal His tag (human, UniProt P31994 43-217)
T3 construct: extracellular domain; also called 2b
T3 sequence: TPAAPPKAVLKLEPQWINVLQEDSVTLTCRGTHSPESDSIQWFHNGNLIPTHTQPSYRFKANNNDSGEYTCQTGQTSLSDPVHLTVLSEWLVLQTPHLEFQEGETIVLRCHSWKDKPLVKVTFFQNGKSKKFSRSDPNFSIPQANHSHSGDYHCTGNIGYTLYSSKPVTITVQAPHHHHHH

B1: GpH7-A5/GpH7-B3 variant S324_14T/GpL16-k0 (antibody, human IgG1, kappa)
heavy 1: not shown
heavy 2: not shown
light: DIVMTQSPLSLPVTPGEPASISCQASESLVHSNRNTYLHWYLQKPGQSPQLLIYKVSNRFSGVPDRFSGSGSGTDFTLKISRVEAEDVGVYYCSQNTHVPPTFGQGTKVEIERTVAAPSVFIFPPSDEQLKSGTASVVCLLNNFYPREAKVQWKVDNALQSGNSQESVTEQDSKDSTYSLSSTLTLSKADYEKHKVYACEVTHQGLSSPVTKSFNRGEC
notes: heterodimerized IgG1, one H chain mutated; also called He Ab; copies: 1 + 1 + 2
B2: GpH7-A5/GpH7-B3 variant S324_15Y/GpL16-k0 (antibody, human IgG1, kappa)
heavy 1: not shown
heavy 2: not shown
light: B1 light
notes: as for B1
B3: GpH7-A5/GpH7-B3 variant S324_18N/GpL16-k0 (antibody, human IgG1, kappa)
heavy 1: not shown
heavy 2: not shown
light: B1 light
notes: as for B1
B4: GpH7-A5/GpH7-B3 variant S324_19Q/GpL16-k0 (antibody, human IgG1, kappa)
heavy 1: not shown
heavy 2: not shown
light: B1 light
notes: as for B1
B5: GpH7-A5/GpH7-B3 variant Y296_01G/GpL16-k0 (antibody, human IgG1, kappa)
heavy 1: not shown
heavy 2: not shown
light: B1 light
notes: as for B1
B6: GpH7-A5/GpH7-B3 variant Y296_02A/GpL16-k0 (antibody, human IgG1, kappa)
heavy 1: not shown
heavy 2: not shown
light: B1 light
notes: as for B1
B7: GpH7-A5/GpH7-B3 variant Y296_03V/GpL16-k0 (antibody, human IgG1, kappa)
heavy 1: not shown
heavy 2: not shown
light: B1 light
notes: as for B1
B8: GpH7-A5/GpH7-B3 variant Y296_04F/GpL16-k0 (antibody, human IgG1, kappa)
heavy 1: not shown
heavy 2: not shown
light: B1 light
notes: as for B1
B9: GpH7-A5/GpH7-B3 variant Y296_06M/GpL16-k0 (antibody, human IgG1, kappa)
heavy 1: not shown
heavy 2: not shown
light: B1 light
notes: as for B1
B10: GpH7-A5/GpH7-B3 variant Y296_07I/GpL16-k0 (antibody, human IgG1, kappa)
heavy 1: not shown
heavy 2: not shown
light: B1 light
notes: as for B1
B11: GpH7-A5/GpH7-B3 variant Y296_08L/GpL16-k0 (antibody, human IgG1, kappa)
heavy 1: not shown
heavy 2: not shown
light: B1 light
notes: as for B1
B12: GpH7-A5/GpH7-B3 variant Y296_09D/GpL16-k0 (antibody, human IgG1, kappa)
heavy 1: not shown
heavy 2: not shown
light: B1 light
notes: as for B1
B13: GpH7-A5/GpH7-B3 variant Y296_10E/GpL16-k0 (antibody, human IgG1, kappa)
heavy 1: not shown
heavy 2: not shown
light: B1 light
notes: as for B1
B14: GpH7-A5/GpH7-B3 variant Y296_11K/GpL16-k0 (antibody, human IgG1, kappa)
heavy 1: not shown
heavy 2: not shown
light: B1 light
notes: as for B1
B15: GpH7-A5/GpH7-B3 variant Y296_12R/GpL16-k0 (antibody, human IgG1, kappa)
heavy 1: not shown
heavy 2: not shown
light: B1 light
notes: as for B1
B16: GpH7-A5/GpH7-B3 variant Y296_13S/GpL16-k0 (antibody, human IgG1, kappa)
heavy 1: not shown
heavy 2: not shown
light: B1 light
notes: as for B1
B17: GpH7-A5/GpH7-B3 variant Y296_14T/GpL16-k0 (antibody, human IgG1, kappa)
heavy 1: not shown
heavy 2: not shown
light: B1 light
notes: as for B1
B18: GpH7-A5/GpH7-B3 variant Y296_16H/GpL16-k0 (antibody, human IgG1, kappa)
heavy 1: not shown
heavy 2: not shown
light: B1 light
notes: as for B1
B19: GpH7-A5/GpH7-B3 variant Y296_18N/GpL16-k0 (antibody, human IgG1, kappa)
heavy 1: not shown
heavy 2: not shown
light: B1 light
notes: as for B1
B20: GpH7-A5/GpH7-B3 variant Y296_19Q/GpL16-k0 (antibody, human IgG1, kappa)
heavy 1: not shown
heavy 2: not shown
light: B1 light
notes: as for B1
B21: GpH7-A5/GpH7-B3 variant Y296_20W/GpL16-k0 (antibody, human IgG1, kappa)
heavy 1: not shown
heavy 2: not shown
light: B1 light
notes: as for B1
B22: GpH7-A5/GpH7-B3 variant Y300_01G/GpL16-k0 (antibody, human IgG1, kappa)
heavy 1: not shown
heavy 2: not shown
light: B1 light
notes: as for B1
B23: GpH7-A5/GpH7-B3 variant Y300_02A/GpL16-k0 (antibody, human IgG1, kappa)
heavy 1: not shown
heavy 2: not shown
light: B1 light
notes: as for B1
B24: GpH7-A5/GpH7-B3 variant Y300_03V/GpL16-k0 (antibody, human IgG1, kappa)
heavy 1: not shown
heavy 2: not shown
light: B1 light
notes: as for B1
B25: GpH7-A5/GpH7-B3 variant Y300_04F/GpL16-k0 (antibody, human IgG1, kappa)
heavy 1: not shown
heavy 2: not shown
light: B1 light
notes: as for B1
B26: GpH7-A5/GpH7-B3 variant Y300_06M/GpL16-k0 (antibody, human IgG1, kappa)
heavy 1: not shown
heavy 2: not shown
light: B1 light
notes: as for B1
B27: GpH7-A5/GpH7-B3 variant Y300_07I/GpL16-k0 (antibody, human IgG1, kappa)
heavy 1: not shown
heavy 2: not shown
light: B1 light
notes: as for B1
B28: GpH7-A5/GpH7-B3 variant Y300_08L/GpL16-k0 (antibody, human IgG1, kappa)
heavy 1: not shown
heavy 2: not shown
light: B1 light
notes: as for B1
B29: GpH7-A5/GpH7-B3 variant Y300_09D/GpL16-k0 (antibody, human IgG1, kappa)
heavy 1: not shown
heavy 2: not shown
light: B1 light
notes: as for B1
B30: GpH7-A5/GpH7-B3 variant Y300_10E/GpL16-k0 (antibody, human IgG1, kappa)
heavy 1: not shown
heavy 2: not shown
light: B1 light
notes: as for B1

Target: T4, FcγRIa extracellular domain, C-terminal His tag (human, UniProt P12314 16-292)
T4 construct: extracellular domain; also called 1a
T4 sequence (P12314 other isoform, or with tags, fused parts or gaps): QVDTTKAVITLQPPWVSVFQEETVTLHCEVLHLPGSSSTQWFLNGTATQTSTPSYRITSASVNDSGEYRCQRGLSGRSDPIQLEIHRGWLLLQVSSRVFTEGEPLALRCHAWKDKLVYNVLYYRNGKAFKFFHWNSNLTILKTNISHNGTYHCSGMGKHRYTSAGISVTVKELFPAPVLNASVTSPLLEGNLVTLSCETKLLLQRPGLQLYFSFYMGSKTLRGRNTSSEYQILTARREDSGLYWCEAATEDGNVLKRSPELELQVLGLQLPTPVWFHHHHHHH
Assay: SPR; He Ab vs HeCon Ab (GpH7-A5/GpH7-B3/GpL16-k0)=100;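 further: surface plasmon resonance at 25 °C with the test antibody captured on a sensor chip via antigenic peptide, protein L or protein A/G and FcγR flowed over as analyte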
Description: (§1) The antibody of interest was analyzed for its interaction with FcγR using a BiaCore™ T100, BiaCore™ A100, or BiaCore™ 4000 surface plasmon resonance system (GE Healthcare Japan Corp.). The running buffer used was HBS-EP+ (GE Healthcare Japan Corp.). The assay temperature was set to 25° C. The sensor chips used were: a chip prepared by immobilizing antigenic peptides onto Series S Sensor Chip CM5 (GE Healthcare Japan Corp.) by the amine coupling method; a chip prepared by immobilizing antigenic peptides biotinylated in advance onto Series S Sensor Chip SA (certified) (GE Healthcare Japan Corp.) through their interaction; a chip prepared by immobilizing protein L (ACTIGEN, BioVision, Inc.) onto Series S Sensor Chip CM5 (GE Healthcare Japan Corp.); and a chip prepared by immobilizing protein A/G (Thermo Fisher Scientific K.K.) onto Series S Sensor Chip CM5 (GE Healthcare Japan Corp.). The antibody of interest was captured onto any of these chips and allowed to interact with FcγR diluted with a running buffer. The antibody captured on the chip was washed off through the reaction of 10 mM glycine-HCl (pH 1.5) to regenerate the chip, which was repetitively used.

Binder | He/Con 1a
B1 | 114%
B2 | 107%
B3 | 109%
B4 | 106%
B5 | 99.4%
B6 | 99.8%
B7 | 101%
B8 | 101%
B9 | 101%
B10 | 101%
B11 | 101%
B12 | 103%
B13 | 102%
B14 | 102%
B15 | 103%
B16 | 102%
B17 | 102%
B18 | 103%
B19 | 102%
B20 | 108%
B21 | 107%
B22 | 110%
B23 | 106%
B24 | 110%
B25 | 102%
B26 | 106%
B27 | 102%
B28 | 107%
B29 | 106%
B30 | 108%

Target: T1, FcγRIIa(R) extracellular domain, …
Assay: as above
Description: as §1

Binder | He/Con 2aR
B1 | 93.9%
B2 | 107%
B3 | 101%
B4 | 86.8%
B5 | 91.6%
B6 | 93%
B7 | 92%
B8 | 105%
B9 | 96.8%
B10 | 96.7%
B11 | 93.7%
B12 | 101%
B13 | 98.2%
B14 | 90.3%
B15 | 95.3%
B16 | 97.5%
B17 | 98.6%
B18 | 100%
B19 | 99.6%
B20 | 97.9%
B21 | 105%
B22 | 66.6%
B23 | 92.9%
B24 | 96.8%
B25 | 103%
B26 | 105%
B27 | 90.9%
B28 | 96.9%
B29 | 105%
B30 | 127%

Target: T2, FcγRIIa(H) extracellular domain, …
Assay: as above
Description: as §1

Binder | He/Con 2aH
B1 | 107%
B2 | 114%
B3 | 109%
B4 | 106%
B5 | 91.6%
B6 | 89.1%
B7 | 86.9%
B8 | 97.8%
B9 | 94.2%
B10 | 92.7%
B11 | 86.9%
B12 | 102%
B13 | 94%
B14 | 83.7%
B15 | 89.1%
B16 | 96.1%
B17 | 97.2%
B18 | 101%
B19 | 101%
B20 | 94.3%
B21 | 95.4%
B22 | 82.6%
B23 | 104%
B24 | 109%
B25 | 103%
B26 | 116%
B27 | 120%
B28 | 120%
B29 | 101%
B30 | 108%

Target: T3, FcγRIIb extracellular domain, …
Assay: as above
Description: as §1

Binder | He/Con 2b
B1 | 115%
B2 | 115%
B3 | 106%
B4 | 87.2%
B5 | 80.4%
B6 | 83.1%
B7 | 80.4%
B8 | 101%
B9 | 89%
B10 | 85.5%
B11 | 83.5%
B12 | 100%
B13 | 99.4%
B14 | 73.8%
B15 | 80.5%
B16 | 87.5%
B17 | 89.4%
B18 | 93.5%
B19 | 92.8%
B20 | 90.5%
B21 | 105%
B22 | 63.2%
B23 | 90.5%
B24 | 96.5%
B25 | 106%
B26 | 110%
B27 | 97.4%
B28 | 96.1%
B29 | 122%
B30 | 175%

Target: T5, FcγRIIIa extracellular domain, C-terminal His tag (human, UniProt P08637 17-208)
T5 construct: extracellular domain; also called 3a
T5 sequence (P08637 other isoform, or with tags, fused parts or gaps): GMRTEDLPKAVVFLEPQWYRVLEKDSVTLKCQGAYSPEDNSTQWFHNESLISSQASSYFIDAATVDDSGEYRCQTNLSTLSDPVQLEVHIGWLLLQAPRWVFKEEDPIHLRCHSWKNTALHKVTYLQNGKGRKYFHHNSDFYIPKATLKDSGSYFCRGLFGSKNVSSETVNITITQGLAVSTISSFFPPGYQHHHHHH
Assay: as above
Description: as §1

Binder | He/Con 3a
B1 | 112%
B2 | 110%
B3 | 103%
B4 | 96.2%
B5 | 51.3%
B6 | 66.3%
B7 | 69.1%
B8 | 79.5%
B9 | 74.6%
B10 | 75.8%
B11 | 72.4%
B12 | 89%
B13 | 76.8%
B14 | 53.3%
B15 | 66.5%
B16 | 58.1%
B17 | 60.7%
B18 | 69.1%
B19 | 67.9%
B20 | 71.4%
B21 | 127%
B22 | 88.6%
B23 | 88.1%
B24 | 83.8%
B25 | 100%
B26 | 106%
B27 | 103%
B28 | 114%
B29 | 104%
B30 | 113%
